Consider one molecule from US11426447B2, “Neuregulin for the treatment of tumors of the nervous system” (LEIBNIZ-INSTITUT FUR …, priority 2016, dated 2022).

Data set [1] is described as follows: Body weight and tolerability of systemically treated animals. The data set is classed as in vivo, mice. As to the method: A, Schematic representation of the protocol used to assess the efficacy of rhNRG1 treatment on schwannoma growth after experimental sciatic nerve crush injury. B, Serum levels of rhNRG1 after single intraperitoneal injections of 10 μg rhNRG1 per kg body weight measured in pooled blood (n=4 animals; median). C, Body weight of animals receiving (genotype and treatment as indicated) was determined over 13 weeks.
(§1) Crush injury-induced schwannoma formation was provoked in 2-month-old mice. Subsequently, administration of rhNRG1 was performed both systemically (by intraperitoneal injection) and locally (by rhNRG1-containing absorbable collagen sponges (ACS)). Vehicle saline solution was given to control animals. In order to assess the bioavailability of intraperitoneally injected rhNRG1 (10 μg per kg body weight), rhNRG1 serum levels were evaluated. Strikingly, rhNRG1 levels reached a peak 2 days after injection (FIG. 1B). […] A significant decline in body weight at the chosen dosage was, however, not observed (FIG. 1C).

Data set [2] deals with crush injury-induced schwannoma. The experiment in a line: In situ tumour size quantification: sciatic nerve diameter after crush injury-induced schwannoma formation. The following applies: KO mice. It counts as in vivo, Nf2flox;P0-Cre;Nefh-Cre mutant mice. From the text: (§2) Unilateral injuries of sciatic nerves were accomplished according to a previously described method (Bauder and Ferguson, 2012). In brief, 8 to 10 week old mice were anesthetized using 2% isoflurane in 100% oxygen. Fur was then removed from one hind limb. After an appropriate incision of the skin, the gluteal musculature was separated in order to reveal the right sciatic nerve. Using haemostatic forceps (Ultra Fine Haemostat; #13021-12; tip width 0.6 mm; Fine Science Tools; Germany), the nerve was crushed once by the application of a defined pressure for 20 s. The locking mechanism of the haemostatic forceps with a series of interlocking teeth ensured reproducibility and standardization of crush injury. Finally, both the gluteal musculature and skin incision were sutured using appropriate surgical suture material.
An EGF domain containing 7 kDa protein of recombinant human Neuregulin 1 (“rhNRG1”) was purchased from Reprokine (#RKQ02297; USA). Protein was firstly resolved in ddH2O and further diluted in phosphate-buffered saline (PBS) to reach target concentrations. […]
Sciatic nerve crush injury was conducted on WT mice and Nf2flox;P0-Cre;Nefh-Cre mutant mice as described above. […] Moreover by determining the myelin thickness, structural integrity of non-crushed, intact nerves was assessed (FIG. 7).

Data set [3] concerns sciatic nerve crush injury. The experiment in a line: Single-frame motion analysis (foot-base angle): functional recovery after sciatic nerve crush. The data set is classed as in vivo, mice.
From the text: as §2
To evaluate locomotor function, mice were accustomed, in 3-4 trials, to beam-walking 1 week prior to surgery. In this test, the animal walks voluntarily from one end of a horizontal beam (length 1000 mm, width 40 mm) towards its home cage located at the other end of the beam. For all mice, a rear view of one walking trial was captured once prior to surgery and at different time-points after surgery with a Video camera and stored on a personal computer in Audio Video Interleaved (AVI) format. The video sequences were examined using VirtualDub 1.6.19 software.
It was tested whether rhNRG1 protein replacement can improve functional recovery of mice over a time period of 8 weeks after sciatic nerve crush.

Data set [4] is described as follows: Serum levels of rhNRG1 after intraperitoneal injection (Nrg1 ELISA kit). It counts as in vivo, mice. The settings on record: single intraperitoneal injection, 10 μg per kg body weight, pooled blood. As to the method: To measure peripheral exposure of rhNRG1 in mice, up to 50 μl blood was sampled from mice for four consecutive days via bilateral retro-orbital plexus and facial veins. For serum preparation, collected blood was allowed to clot at room temperature for 1 hour before spinning for 20 minutes at 2,000 g.
Blood serum levels of rhNRG1 before and after intraperitoneal injection were measured using a commercially available kit according to manufacturer's instructions (#ab100614; Abcam; USA).
as §1
(ELISA stands for enzyme-linked immunosorbent assay.)

For another data set, the system named is intact nerves. The experiment in a line: Morphometric analysis of nerve sections: myelin thickness of non-crushed, intact nerves. It counts as in vivo, wildtype mice. The following applies: long-term treatment over 8 weeks, vs PBS control. Here is the method:
Analysis of axon calibre, myelination thickness and solidity factor was conducted on semi-thin and ultra-thin sections of the sciatic nerve removed from transcardially perfused mice. Mice were perfused with a solution containing 3% paraformaldehyde and 3% glutaraldehyde in 0.1 M phosphate buffer (pH 7.4). Sections were postfixed for 1 h and kept in fixative including 3% sucrose. Sections were obtained from the distal part of the sciatic nerve. Sectioning and staining were performed as described. Images of toluidine blue-stained semi-thin sections were taken using an Axioskop 2 MOT (Carl Zeiss, Germany) equipped with a 100× immersion oil objective and an Olympus XC50 digital camera (Olympus, Germany). Standardized settings for camera sensitivity, resolution (2,576×1,932 pixels) and brightness of illumination were used for all micrographs. Ultra-thin sections were analysed with an electron microscope (EM910, Carl Zeiss) equipped with an integrated TRS 1K digital camera (Carl Zeiss). Image analysis was conducted with ImageJ version 1.48u. RGB colour images obtained from semi-thin sections were split into single channels and the green channel was chosen for measurements. The image was contrasted using the auto function. Axon and myelin were circumscribed manually by the freehand selection tool. Based on the measured areas, the thicknesses of the axons and myelin sheaths were calculated. […]

The next data set concerns pre-existing schwannomas. The experiment in a line: rhNRG1 treatment of pre-existing schwannomas: maximum sciatic nerve diameter. The data set is classed as in vivo, Nf2flox;P0-Cre;Nefh-Cre mutant mice. The following applies: 3 months untreated, then 3 months systemic rhNRG1, vs vehicle. The text has this:
A, Schematic representation of the protocol used to assess the efficacy of rhNRG1 treatment on pre-existing schwannomas. B, Quantification of maximum sciatic nerve diameters 3 and 6 months after nerve crush injury. Nf2flox;P0-Cre;Nefh-Cre mutant mice received either saline injections (vehicle) or intraperitoneal administration of rhNRH1 (** P<0.01 for differences between vehicle and rhNRG1-treated animals; n=6 animals per genotype; mean±SEM).
Three months after crush injury the right sciatic nerve of all animals was exposed surgically in order to assess sciatic nerve diameter as indicator for tumour size. Documentation was performed by video-assisted microscopy for each animal. Selected frames from the video files (using VirtualDub 1.6.19 software) were used to determine sciatic nerve diameter using ImageJ.
Two cohorts of animals underwent crush injury-induced schwannoma induction at the right sciatic nerve as described above (FIG. 5A). […] Then knockout animals (Nf2flox;P0-Cre;Nefh-Cre mutant animals) received either systemic rhNRG1 treatment or vehicle control applications for three months (FIG. 5A). […] (FIG. 5B)

B1: rhNRG1: EGF domain containing 7 kDa protein of recombinant human Neuregulin 1, purchased from Reprokine (#RKQ02297) (protein, listed as Homo sapiens)
chain: SHLVKCAEKEKTFCVNGGECFMVKDLSNPSRYLCKCPNEFTGDRCQNYVMASFYKHLGIEF
As for B1, the tolerability result in data set [1] (10 μg/kg, Nf2flox;P0-Cre;Nefh-Cre animals) is listed as “well tolerated”. Also, the “significant decline in body weight” value in data set [1] (systemic treatment at chosen dosage (10 μg/kg ip every other day), weighed weekly over 13 weeks) was “not observed”. Besides, the “sciatic nerve diameter 3 months after crush injury” value in data set [2] (local collagen sponges soaked in 0.2 mg/ml rhNRG1, KO vehicle ACS about 1.8 mm, WT about 1 mm) is “about 1.4 mm”; in data set [2] (systemic (ip) rhNRG1, KO vehicle about 2 mm, WT vehicle about 1 mm) it was “about 1.5 mm”. In addition, the “functional recovery after sciatic nerve crush (SFMA)” value in data set [3] (Nf2flox;P0-Cre;Nefh-Cre mutant mice, intraperitoneal injections every other day, vs no treatment or saline) is reported as “significantly improved recovery”; in data set [3] (wildtype animals, systemic rhNRG1, 8 weeks), “does not enhance regeneration”. In addition, in data set [3] (Nf2flox;P0-Cre;Nefh-Cre mutant mice, local administration with absorbable collagen sponges, vs control treatment), the “functional regeneration after sciatic nerve crush (SFMA)” value is “able to increase functional regeneration”. In addition, in data set [4], the “time of peak rhNRG1 serum level after injection” value is on record as 2 days. The “impact on the microarchitecture of intact nerves (myelin thickness, g-ratio)” value with intact nerves is recorded as “no obvious impact”. Further, the “tumor size (maximum sciatic nerve diameter)” value in the data set with pre-existing schwannomas was “markedly smaller”.
